Measurements published in paper PMC12071944, “Interaction Between Glucagon-like Peptide 1 and Its Analogs with Amyloid-β Peptide Affects Its Fibrillation and Cytotoxicity” (International Journal of Molecular Sciences, 2025).
Several values for one entry are separate records, joined by “and”; a condition that tells them apart may be missing. Equal entries are not always repeated. Where two headings read alike, the source gives them in different places.

Legend:
exenatide [1] = target: exenatide (UniProt P26349); test: dynamic light scattering; […] µM Exen; 25 °C; 25 mM Tris-HCl, 140 mM NaCl, 4.9 mM KCl, […] CaCl2, 1 mM MgCl2, pH 7.4; degree of multimerization MWRh/MWm
exenatide [2] = target: exenatide (UniProt P26349); test: dynamic light scattering; 29 µM Exen; 25 °C; 25 mM Tris-HCl, 140 mM NaCl, 4.9 mM KCl, […] CaCl2, 1 mM MgCl2, pH 7.4; degree of multimerization MWRh/MWm
exenatide [3] = target: exenatide (UniProt P26349); test: dynamic light scattering; 115 µM Exen; 25 °C; 25 mM Tris-HCl, 140 mM NaCl, 4.9 mM KCl, […] CaCl2, 1 mM MgCl2, pH 7.4; degree of multimerization MWRh/MWm
[4] = target: amyloid-β peptide, residues 1-40 (human) (UniProt P05067); test: BLI; Aβ40/Aβ42 immobilised on amine-reactive sensors (EDAC/sulfo-NHS), washed with 0.5% SDS; analyte 4–15 µM Exen; 25 °C; 20 mM Tris-HCl, 140 mM NaCl, 4.9 mM KCl, […] CaCl2, 1 mM MgCl2, pH 7.4; curves not fitted, KD estimated as the level of the analyte concentrations; apparent
[5] = target: amyloid-β peptide, residues 1-42 (human) (UniProt P05067); test: as above
exenatide [6] = target: exenatide (UniProt P26349); test: dynamic light scattering; 234 µM Exen; 25 °C; 25 mM Tris-HCl, 140 mM NaCl, 4.9 mM KCl, […] CaCl2, 1 mM MgCl2, pH 7.4; degree of multimerization MWRh/MWm
[7] = target: amyloid-β peptide, residues 1-40 (human) (UniProt P05067)
[8] = target: amyloid-β peptide, residues 1-42 (human) (UniProt P05067)
[9] = target: amyloid-β peptide, residues 1-40 (human) (UniProt P05067); test: BLI; Aβ40/Aβ42 immobilised on amine-reactive sensors (EDAC/sulfo-NHS), washed with 0.5% SDS; analyte 10 µM Lira; 25 °C; 20 mM Tris-HCl, 140 mM NaCl, 4.9 mM KCl, […] CaCl2, 1 mM MgCl2, pH 7.4; single binding site model (1), fitted for each analyte concentration; apparent constants
[10] = target: amyloid-β peptide, residues 1-42 (human) (UniProt P05067); test: as above
[11] = target: amyloid-β peptide, residues 1-40 (human) (UniProt P05067); test: BLI; Aβ40/Aβ42 immobilised on amine-reactive sensors (EDAC/sulfo-NHS), washed with 0.5% SDS; analyte 5 µM Lira; 25 °C; 20 mM Tris-HCl, 140 mM NaCl, 4.9 mM KCl, […] CaCl2, 1 mM MgCl2, pH 7.4; single binding site model (1), fitted for each analyte concentration; apparent constants
[12] = target: amyloid-β peptide, residues 1-42 (human) (UniProt P05067); test: as above
liraglutide (human) [13] = test: dynamic light scattering; 6 µM Lira; 25 °C; 25 mM Tris-HCl, 140 mM NaCl, 4.9 mM KCl, […] CaCl2, 1 mM MgCl2, pH 7.4; degree of multimerization MWRh/MWm
liraglutide (human) [14] = test: dynamic light scattering; 52 µM Lira; 25 °C; 25 mM Tris-HCl, 140 mM NaCl, 4.9 mM KCl, […] CaCl2, 1 mM MgCl2, pH 7.4; degree of multimerization MWRh/MWm
[15] = target: amyloid-β peptide, residues 1-40 (human) (UniProt P05067); test: SPR
[16] = target: amyloid-β peptide, residues 1-42 (human) (UniProt P05067); test: SPR
liraglutide (human) [17] = test: dynamic light scattering; 13 µM Lira; 25 °C; 25 mM Tris-HCl, 140 mM NaCl, 4.9 mM KCl, […] CaCl2, 1 mM MgCl2, pH 7.4; degree of multimerization MWRh/MWm
[18] = target: amyloid-β peptide, residues 1-40 (human) (UniProt P05067); test: BLI; Aβ40/Aβ42 immobilised on amine-reactive sensors (EDAC/sulfo-NHS), washed with 0.5% SDS; analyte 20 µM Lira; 25 °C; 20 mM Tris-HCl, 140 mM NaCl, 4.9 mM KCl, […] CaCl2, 1 mM MgCl2, pH 7.4; single binding site model (1), fitted for each analyte concentration; apparent constants
[19] = target: amyloid-β peptide, residues 1-42 (human) (UniProt P05067); test: as above
semaglutide (human) = test: dynamic light scattering; 12 µM Sema; 25 °C; 25 mM Tris-HCl, 140 mM NaCl, 4.9 mM KCl, […] CaCl2, 1 mM MgCl2, pH 7.4; degree of multimerization MWRh/MWm
[20] = target: amyloid-β peptide, residues 1-40 (human) (UniProt P05067); test: BLI; Aβ40/Aβ42 immobilised on amine-reactive sensors (EDAC/sulfo-NHS), washed with 0.5% SDS; analyte Sema, 17 µM on Aβ40 and 38 µM on Aβ42; 25 °C; 20 mM HEPES-KOH, 140 mM NaCl, 4.9 mM KCl, […] CaCl2, 1 mM MgCl2, pH 7.4; heterogeneous ligand scheme (2)
[21] = target: amyloid-β peptide, residues 1-42 (human) (UniProt P05067); test: as above

“exenatide (from UniProt P26349 48-87) (peptide)” showed a stoichiometry N (exenatide [1]) of 1.6, a stoichiometry N (exenatide [2]) of 2.1 and a stoichiometry N (exenatide [3]) of 6.4. The Kd [4] was 4000 nM and 15000 nM, the Kd [5] was 4000 nM and 15000 nM and the stoichiometry N (exenatide [6]) was 5.88. The Kd [7] was 1000 nM and the Kd [8] was 1000 nM.
In the case of liraglutide (peptide), the Kd [9] is reported as 48 nM, the koff [9] is reported as 0.000346 s⁻¹ and the kon [9] is reported as 7300 M⁻¹ s⁻¹. For the same substance, the Kd [10] was 60 nM, the koff [10] was 0.000482 s⁻¹ and the kon [10] was 8000 M⁻¹ s⁻¹. For the same substance, the Kd [11] was 42 nM, the koff [11] was 0.000556 s⁻¹ and the kon [11] was 13400 M⁻¹ s⁻¹. For the same substance, the Kd [12] was 45 nM, the koff [12] was 0.00054 s⁻¹ and the kon [12] was 12100 M⁻¹ s⁻¹. The stoichiometry N (liraglutide (human) [13]) was 8.2, the stoichiometry N (liraglutide (human) [14]) was 16.3 and the KD1 (heterogeneous ligand model, site 1) [15] was 950 nM. It also gave a KD2 (heterogeneous ligand model, site 2) [15] of 9.1 µM, a ka1 (heterogeneous ligand model, site 1) [15] of 1440 M⁻¹ s⁻¹ and a ka2 (heterogeneous ligand model, site 2) [15] of 1900 M⁻¹ s⁻¹. It also gave a kd1 (heterogeneous ligand model, site 1) [15] of 0.00119 s⁻¹, a kd2 (heterogeneous ligand model, site 2) [15] of 0.017 s⁻¹ and a KD1 (heterogeneous ligand model, site 1) [16] of 520 nM. The KD2 (heterogeneous ligand model, site 2) [16] was 5.6 µM, the ka1 (heterogeneous ligand model, site 1) [16] was 2240 M⁻¹ s⁻¹ and the ka2 (heterogeneous ligand model, site 2) [16] was 2900 M⁻¹ s⁻¹. The kd1 (heterogeneous ligand model, site 1) [16] was 0.00114 s⁻¹, the kd2 (heterogeneous ligand model, site 2) [16] was 0.0164 s⁻¹ and the stoichiometry N (liraglutide (human) [17]) was 6.5. For the same substance, the Kd [18] was 110 nM, the koff [18] was 0.0009 s⁻¹ and the kon [18] was 8400 M⁻¹ s⁻¹. For the same substance, the Kd [19] was 110 nM, the koff [19] was 0.0006 s⁻¹ and the kon [19] was 5700 M⁻¹ s⁻¹.
semaglutide (peptide) was tested, and the stoichiometry N (semaglutide (human)) was 1.9, the KD1 (heterogeneous ligand scheme, site 1) [20] was 12 µM and the KD2 (heterogeneous ligand scheme, site 2) [20] was 16 µM. The ka1 (heterogeneous ligand scheme, site 1) [20] was 310 M⁻¹ s⁻¹, the ka2 (heterogeneous ligand scheme, site 2) [20] was 5700 M⁻¹ s⁻¹ and the kd1 (heterogeneous ligand scheme, site 1) [20] was 0.0037 s⁻¹. It also gave a kd2 (heterogeneous ligand scheme, site 2) [20] of 0.091 s⁻¹, a KD1 (heterogeneous ligand scheme, site 1) [21] of 11 µM and a KD2 (heterogeneous ligand scheme, site 2) [21] of 22 µM. It also gave a ka1 (heterogeneous ligand scheme, site 1) [21] of 582 M⁻¹ s⁻¹, a ka2 (heterogeneous ligand scheme, site 2) [21] of 6100 M⁻¹ s⁻¹ and a kd1 (heterogeneous ligand scheme, site 1) [21] of 0.0064 s⁻¹. For the same substance, the kd2 (heterogeneous ligand scheme, site 2) [21] was 0.134 s⁻¹, the KD1 (heterogeneous ligand model, site 1) [15] was 340 nM and the KD2 (heterogeneous ligand model, site 2) [15] was 1.2 µM. It also gave a ka1 (heterogeneous ligand model, site 1) [15] of 9600 M⁻¹ s⁻¹, a ka2 (heterogeneous ligand model, site 2) [15] of 39000 M⁻¹ s⁻¹ and a kd1 (heterogeneous ligand model, site 1) [15] of 0.0032 s⁻¹. It also gave a kd2 (heterogeneous ligand model, site 2) [15] of 0.0432 s⁻¹, a KD1 (heterogeneous ligand model, site 1) [16] of 340 nM and a KD2 (heterogeneous ligand model, site 2) [16] of 0.3 µM. It also gave a ka1 (heterogeneous ligand model, site 1) [16] of 12600 M⁻¹ s⁻¹, a ka2 (heterogeneous ligand model, site 2) [16] of 134000 M⁻¹ s⁻¹ and a kd1 (heterogeneous ligand model, site 1) [16] of 0.0041 s⁻¹. For the same substance, the kd2 (heterogeneous ligand model, site 2) [16] was 0.038 s⁻¹.
